The assay addresses PD-L1-Fc fusion protein (Invitrogen) (human, UniProt Q9NZQ7 19-238). As to the kind of experiment: BLI.

These results are taken from PMC9811221 (2022).

Chain of PD-L1-Fc fusion protein (Invitrogen) (Q9NZQ7 19-238): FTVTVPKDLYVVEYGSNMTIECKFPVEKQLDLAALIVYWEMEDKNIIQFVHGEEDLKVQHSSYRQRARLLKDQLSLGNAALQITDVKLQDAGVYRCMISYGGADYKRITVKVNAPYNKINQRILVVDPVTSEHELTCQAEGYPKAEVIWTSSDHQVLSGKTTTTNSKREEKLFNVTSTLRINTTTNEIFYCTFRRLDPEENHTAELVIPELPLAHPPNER

B1: VHH10 (VHH)
VHH: EVQLVESGGGLVQAGDSLRLSCAASGRAFSGYAMAWFRQAPEKEREFVAAITWRGGTPYYAVRAKGRFTISRDSAKNTAYLEVNSLKPEDTATYYCAAPSLQVATMDVKDYAYWGQGTLVTVSS
B1: the Kd was 190 nM. This lies in the sub-micromolar range.

B2: VHH20 (VHH)
VHH: EVQLVESGGGSVQAGGSLRLSCVASGIAFSESPMAWYRQAPGRQREFVADVSADNKPYYRDTLKGRFTISRDNDKNSVYLQMNFLQPEDTAVYYCNALLLEAGTIKNYWGQGTQVTVSS
Molecule B2 yielded a dissociation constant (Kd) of 340 nM.

B3: VHH19 (VHH)
VHH: EVQLVESGGGSVQAGASLRLSCAASGFPFSHYAIGWFRQAPGKEREFVTSIDRSGINTYYADSVKGRFTISRDNAKNAVSLQMNSLKPDDTAVYYCAAGPRLVTSPELYPYWGQGTQVTVSS
On to B3, for which binding was characterised by a dissociation constant (Kd) of 1600 nM. This Kd is about 4.7-fold higher than that of the molecule before.

B4: VHH13 (VHH)
VHH: EVQLVESGGGLVQPGGSLRLSCAASGSTFSINAMGWYRQAPGKQRELVAAISSGGSTNYADSVKGRFTISRDNAKNTVYLQMNSLKPEDTAVYYCNTINIGTFISLGGSPLGSWGQGTQVTVSS
Regarding B4, the equilibrium dissociation constant (Kd) was 1300 nM.

B5: VHH21 (VHH)
VHH: EVQLVESGGGLVQTGGSLRLSCAASGRTFDSYFMGWFRQAPGKEREFVAAISGSGSLTSYEDGVKGRFTISRDNAKNTVSLQMTNLKPEDTAVYYCASCLSCAFINGRQVDSRYYNYWGQGTQVTVSS
B5: binding was characterised by a dissociation constant (Kd) of 5100 nM.

B6: VHH17 (VHH)
VHH: EVQLVESGGGLVQAGGSLRLSCAASGRTFSAYAMGWFRQAPGKERELVAGISWSGGMTYYADSVKGRFTISRDNAKNMVYLQMNSLKAEDTAVYYCAGGFSAVVPDHPDEYHYWGQGTQVTVSS
Turning to B6, the equilibrium dissociation constant (Kd) came to 330 nM.

B7: VHH18 (VHH)
VHH: EVQLVESGGGWVQTGGSLRLSCAASGSTFDIKRMAWYRQAPGKEREFVADIWSEGSTHYADSVKGRFTISRDSAKNTMYLYMNSLKPEDTAVYYCNVEYVLRTYWGQGTQVTVSS
With B7, the equilibrium dissociation constant (Kd) worked out at 720 nM.

B8: VHH14 (VHH)
VHH: EVQLVESGGGLVQAGDSLRLSCTASARTFIKYAMGWFRQAPGKEREFVAAISWSGSRTTYADSVKGRFTISRDNDKNTVYLQMNTLEPEDTAIYYCAKAKGGYHSSQYDYDYWGQGTQVTVSS
B8 yielded a dissociation constant (Kd) of 290 nM.

B9: VHH2 (VHH)
VHH: QVQLVESGGGSVQPGGSLRLSCAASGSIVGHAVQAWYRQAPGKQRDLVAQLFDNGKTNIADSVKGRFTISGDNAKNTFYLQMNNLKPEDTAIYYCAILILPSMGVPPNIYEGQGTQVTVSS
B9 showed a Kd of 2200 nM.

B10: VHH16 (VHH)
VHH: QVQLVESGGGWVQTGGSLRLSCAASGSTFDIKRMAWYRQAPGKEREFVADIWSEGSTHYADSVKGRFTISRDSAKNTMYLQMNSLKPEDTAAYYCNVGNTWGQGTQVTVSS
The molecule B10 displayed a Kd of 180 nM. Compared with the last molecule, the Kd is about 12-fold lower.

B11: VHH22 (VHH)
VHH: EVQLVESGGGLVQAGGSLKLSCAASGRTFSGNTMGWFRQAPGKERELVTVVSSGGSTYYSDSVKGRFTISRDNALNTVYLQMNSLKPEDTAVYYCAAASLISGLTTTRRLFDYWGQGTQVTVSS
For the molecule B11, the Kd was 2700 nM.
